From PMC10663500

Assays:
[1] = target: T1, mouse programmed cell death protein 1 C60S (aa 25-167) Fc fusion protein, Q02242; assay: BreviA (SPR); settings: chain shown with the change;, read off a plot; for Kd: parent: est. 1.2e-7 M
T1 chain: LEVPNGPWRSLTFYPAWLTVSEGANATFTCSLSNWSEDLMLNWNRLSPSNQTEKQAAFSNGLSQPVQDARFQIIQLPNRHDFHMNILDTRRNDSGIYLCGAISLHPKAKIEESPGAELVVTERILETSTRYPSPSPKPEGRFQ

[2] = target: T2, human programmed cell death protein 1 C93S (aa 24-167), Q15116; assay: SPR; settings: chain shown with the change; top curve (taken as 1024 nM hPD-1), read at end of association, about 570 s; antibody immobilized as ligand; parent: est. 740; read off a plot
[3] = target: T2, human programmed cell death protein 1 …; assay: BreviA (SPR); settings: chain shown with the change;; parent: est. 910 pM; read off a plot

T2 sequence (Q15116 24-167 C93S): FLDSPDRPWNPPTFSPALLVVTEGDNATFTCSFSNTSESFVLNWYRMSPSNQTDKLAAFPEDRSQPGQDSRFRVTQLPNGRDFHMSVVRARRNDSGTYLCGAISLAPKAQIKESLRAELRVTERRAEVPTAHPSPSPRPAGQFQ

B1: toripalimab Fab (wild-type) L:L101A (protein)
chain 1: QGQLVQSGAEVKKPGASVKVSCKASGYTFTDYEMHWVRQAPIHGLEWIGVIESETGGTAYNQKFKGRVTITADKSTSTAYMELSSLRSEDTAVYYCAREGITTVATTYYWYFDVWGQGTTVTVSS
chain 2: DVVMTQSPLSLPVTLGQPASISCRSSQSIVHSNGNTYLEWYLQKPGQSPQLLIYKVSNRFSGVPDRFSGSGSGTDFTLKISRVEAEDVGVYYCFQGSHVPATFGQGTKLEIK
B1 gave a Kd [1] of 26 nM.

B2: toripalimab Fab (wild-type) L:P100H (protein)
chain 1: QGQLVQSGAEVKKPGASVKVSCKASGYTFTDYEMHWVRQAPIHGLEWIGVIESETGGTAYNQKFKGRVTITADKSTSTAYMELSSLRSEDTAVYYCAREGITTVATTYYWYFDVWGQGTTVTVSS
chain 2: DVVMTQSPLSLPVTLGQPASISCRSSQSIVHSNGNTYLEWYLQKPGQSPQLLIYKVSNRFSGVPDRFSGSGSGTDFTLKISRVEAEDVGVYYCFQGSHVHLTFGQGTKLEIK
Binder B2 has a Kd [1] of 1 nM and a response [2] of 470 RU.

B3: toripalimab Fab (wild-type) L:V99A (protein)
chain 1: QGQLVQSGAEVKKPGASVKVSCKASGYTFTDYEMHWVRQAPIHGLEWIGVIESETGGTAYNQKFKGRVTITADKSTSTAYMELSSLRSEDTAVYYCAREGITTVATTYYWYFDVWGQGTTVTVSS
chain 2: DVVMTQSPLSLPVTLGQPASISCRSSQSIVHSNGNTYLEWYLQKPGQSPQLLIYKVSNRFSGVPDRFSGSGSGTDFTLKISRVEAEDVGVYYCFQGSHAPLTFGQGTKLEIK
B3 gave a koff ([1]; parent: est. 5.9e-3 s-1) of 0.00036 s⁻¹.

B4: toripalimab Fab (wild-type) L:V99G (protein)
chain 1: QGQLVQSGAEVKKPGASVKVSCKASGYTFTDYEMHWVRQAPIHGLEWIGVIESETGGTAYNQKFKGRVTITADKSTSTAYMELSSLRSEDTAVYYCAREGITTVATTYYWYFDVWGQGTTVTVSS
chain 2: DVVMTQSPLSLPVTLGQPASISCRSSQSIVHSNGNTYLEWYLQKPGQSPQLLIYKVSNRFSGVPDRFSGSGSGTDFTLKISRVEAEDVGVYYCFQGSHGPLTFGQGTKLEIK
B4 was tested, and the Kd [3] was 2 nM and the response [2] was 770 RU.
